Reference: patent publication US20190382474A1 (SURFACE ONCOLOGY, published 2019)

T1: recombinant mouse IL-27 (mouse, UniProt O35228 19-228; Q8K3I6 29-234, limits assumed)
T1 construct: also called rodent recombinant IL-27
T1 sequence (looked up) 1: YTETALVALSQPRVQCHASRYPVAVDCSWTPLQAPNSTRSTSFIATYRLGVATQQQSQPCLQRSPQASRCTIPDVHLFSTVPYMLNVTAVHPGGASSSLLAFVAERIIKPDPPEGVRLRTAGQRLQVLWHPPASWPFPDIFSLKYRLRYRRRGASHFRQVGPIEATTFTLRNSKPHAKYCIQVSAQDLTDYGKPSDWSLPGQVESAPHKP
T1 sequence (looked up) 2: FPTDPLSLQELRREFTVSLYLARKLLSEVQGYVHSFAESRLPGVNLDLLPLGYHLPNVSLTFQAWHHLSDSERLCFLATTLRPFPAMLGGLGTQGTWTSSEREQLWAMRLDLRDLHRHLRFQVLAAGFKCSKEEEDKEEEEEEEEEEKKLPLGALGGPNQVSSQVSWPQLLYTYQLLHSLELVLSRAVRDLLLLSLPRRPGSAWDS

T2: recombinant human IL-27 (human, UniProt Q14213 21-229; Q8NEV9 29-243)
T2 construct: Bought from R&D Systems (Cat. 2526-IL); also called hIL-27; rhIL-27
T2 sequence 1: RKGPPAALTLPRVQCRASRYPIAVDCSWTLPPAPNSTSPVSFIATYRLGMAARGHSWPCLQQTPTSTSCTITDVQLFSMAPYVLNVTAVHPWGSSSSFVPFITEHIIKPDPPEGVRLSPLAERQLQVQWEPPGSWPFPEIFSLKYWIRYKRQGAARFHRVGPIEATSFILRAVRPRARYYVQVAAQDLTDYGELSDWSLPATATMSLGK
T2 sequence 2: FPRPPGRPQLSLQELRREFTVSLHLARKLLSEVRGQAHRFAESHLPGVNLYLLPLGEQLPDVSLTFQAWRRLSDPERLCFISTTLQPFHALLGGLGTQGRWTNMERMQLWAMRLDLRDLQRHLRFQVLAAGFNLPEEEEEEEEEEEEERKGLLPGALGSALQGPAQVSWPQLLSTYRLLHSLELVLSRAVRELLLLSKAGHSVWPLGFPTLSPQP


How the values were obtained:
recombinant mouse IL-27 = biological target: T1, recombinant mouse IL-27; assay: column 'Affinity mIL-27 (M)'; method not given
recombinant human IL-27 [1] = biological target: T2, recombinant human IL-27; assay: SPR (BIACORE 2000) as the paragraph says; values in FIG. 9
recombinant human IL-27 [2] = biological target: T2, recombinant human IL-27; assay: column 'Affinity hIL-27 (M)', property (i); method not given, paragraph 885 names SPR (BIACORE 2000)
recombinant human IL-27 [3] = biological target: T2, recombinant human IL-27; assay: cell-based or functional assay
recombinant human IL-27 [4] = biological target: T2, recombinant human IL-27; assay: SPR single cycle kinetics, 1:1 model
Experimental: The antibodies were further characterized by surface plasmon resonance (SPR). Kinetic experiments were performed on a Biacore T200 (GE Healthcare, Uppsala, Sweden). All experiments were run at 25° C. with HBS-P+ running buffer (pH 7.4) (GE Healthcare, Little Chalfont, UK) using hIL-27 (R&D Systems, Abingdon, UK). Human IL-27 (hIL-27) antigen was captured on a CM5 chip to ˜16 RU. Immobilization was carried out at a protein concentration of 1 μg/mL in 10 mM acetate buffer pH 5.0. A three point, three-fold dilution range from 3.3 nM to 30 nM of antibody diluted in HBS-P+ buffer without regeneration between each concentration was used. The association phase for the three injections of increasing concentrations of antibody was monitored for 75 seconds each time and a single dissociation phase was measured for 250 seconds following the last injection of antibody. Regeneration of the hIL-27 surface was conducted using a single injection of 2M MgCl₂ for 120 s. Multiple repeats (n=4) of the chimeric antibody were performed throughout the assay to check the stability of the surface and analyte over the kinetic cycles.

recombinant human IL-27 [5] = biological target: T2, recombinant human IL-27; assay: SPR (Biacore T200), hIL-27 on CM5 chip, single cycle kinetics

Binder | Kd (recombinant mouse IL-27) [nM] | Kd (recombinant human IL-27 [1]) [nM] | Kd (recombinant human IL-27 [2]) [nM] | binding result (recombinant human IL-27 [5]) | other results
SRF410 (antibody, V domains shown, also called SRF410-A; SRF410-B) VH: QVQLVQSGAEVKKPGSSVKVSCKASGGTFSAYAISWVRQAPGQGLEWMGGIIPIFGTANYAQKFQGRVTITADESTSTAYMELSSLRSEDTAVYYCARSYYSSRWHYYYYMDVWGKGTTVTVSS VL: DIQMTQSPSSVSASVGDRVTITCRASQGISSWLAWYQQKPGKAPKLLIYAASNLQSGVPSRFSGSGSGTDFTLTISSLQPEDFATYYCQQADDLPLTFGGGTKVEIK | 5.81 | ≤ 15 | 0.39 | – | –
SRF405 (antibody, V domains shown, also called SRF405-A; SRF405-B) VH: QVQLVQSGAEVKKPGSSVKVSCKASGGTFVGYAISWVRQAPGQGLEWMGGIIPIFGIANYAQKFQGRVTITADESTSTAYMELSSLRSEDTAVYYCARSYYSSRWHYYYYMDVWGKGTTVTVSS VL: DIQMTQSPSSVSASVGDRVTITCRASQGISSWLAWYQQKPGKAPKLLIYAASNLQSGVPSRFSGSGSGTDFTLTISSLQPEDFATYYCQQADDLPLTFGGGTKVEIK | 5.02 | ≤ 15 | 0.1 | – | –
SRF411 (antibody, V domains shown, also called SRF411-A; SRF411-B) VH: QVQLVQSGAEVKKPGSSVKVSCKASGGTFESYTISWVRQAPGQGLEWMGGIAPIFGTAHYAQKFQGRVTITADESTSTAYMELSSLRSEDTAVYYCARSYYSSRWHYYYYMDVWGKGTTVTVSS VL: DIQMTQSPSSVSASVGDRVTITCRASQGISSWLAWYQQKPGKAPKLLIYAASNLQSGVPSRFSGSGSGTDFTLTISSLQPEDFATYYCQQADDLPLTFGGGTKVEIK | 0.546 | ≤ 15 | 0.43 | – | –
SRF535 (antibody, V domains shown, also called SRF535-A; SRF535-B) VH: EVQLVESGGGLVQPGGSLRLSCAASGFTFSSYGMSWVRQAPGKGLEWVANIKQDGSEKYYVDSVKGRFTISRDNAKNSLYLQMNSLRAEDTAVYYCARDAPWDIYDYYMDVWGKGTTVTVSS VL: not shown | – | ≤ 15 | 11.5 | – | binding result (recombinant mouse IL-27): no binding
SRF381 (antibody, V domains shown, also called SRF381-A; SRF381-B) VH: EVQLVESGGGLVKPGGSLRLSCAASGFTFRSYGMNWVRQAPGKGLEWVSSISSSSSYIYYADSVKGRFTISRDNAKNSLYLQMNSLRAEDTAVYYCARDGGRTSYTATAHNWFDPWGQGTLVTVSS VL: not shown | 0.456 | – | 0.0028 | – | IC50 of inhibition of phosphorylation of STAT1 in HUT-78 cells (recombinant human IL-27 [3]): 0.08 µg/mL; IC50 of inhibition of phosphorylation of STAT1 in U937 cells (recombinant human IL-27 [3]): 0.081 µg/mL; IC50 of inhibition of phosphorylation of STAT1 in pooled human PBMCs (recombinant human IL-27 [3]): 0.141 µg/mL
SRF386 (antibody, V domains shown, also called SRF386-A; SRF386-B) VH: EVQLVESGGGLVKPGGSLRLSCAASGFTFASYGMNWVRQAPGKGLEWVSSISSSSSYIYYADSVKGRFTISRDNAKNSLYLQMNSLRAEDTAVYYCARDGGRTSYTATAHNWFDPWGQGTLVTVSS VL: not shown | 1.75 | ≤ 15 | 0.0034 | – | –
Ab7.6 (antibody, human IgG1, kappa, V domains shown, human IgG1/kappa) VH: EVKLVESGGGLVQPGGSLRLSCAASGFTFTSYSMSWVRQAPGKGLEWVAYISYDGGSAYYPDTVKGRFTISRDNSKKTLYLQMSSLKSEDTAMYYCARHGDYDDDDAMDYWGQGTSVTVSS VL: DIQMTQSPSSLSASVGDRVTITCRASENIYSYLAWYQQKPGKAPKLLVYNAETLTEGVPSRFSGSGSGTDFTLTISSLQPEDFATYYCQHHYGTPLTFGQGTKLEIKR | – | – | – | – | binding result (recombinant human IL-27 [4]): binds
Ab7.11 (antibody, human IgG1, kappa, V domains shown, human IgG1/kappa; also called Ab7-VL4 humanized variant) VH: EVQLVESGGGLVQPGGSLRLSCAASGFTFTSYSMSWVRQAPGKGLEWVAYISYDGGSAYYPDTVKGRFTISRDNSKNTLYLQMSSLKSEDTAMYYCARHGDYDDDDAMDYWGQGTLVTVSS VL: DIQMTQSPSSLSASVGDRVTITCRASENIYSYLNWYQQKPGKAPKLLVYNAETLTEGVPSRFSGSGSGTDFTLTISSLQPEDFATYYCQHHYGTPLTFGQGTKLEIKR | – | – | – | no binding (tested: 3.3 nM to 30 nM of antibody) | –
Ab7.19 (antibody, human IgG1, kappa, V domains shown, human IgG1/kappa; also called Ab7-VL4 humanized variant) VH: EVQLVESGGGLVQPGGSLRLSCAASGFTFTSYSMSWVRQAPGKGLEWVAYISYDGGSAYYPDTVKGRFTISRDNSKNTLYLQMNSLRAEDTAVYYCARHGDYDDDDAMDYWGQGTLVTVSS VL: DIQMTQSPSSLSASVGDRVTITCRASENIYSYLNWYQQKPGKAPKLLVYNAETLTEGVPSRFSGSGSGTDFTLTISSLQPEDFATYYCQHHYGTPLTFGQGTKLEIKR | – | – | – | no binding (tested: 3.3 nM to 30 nM of antibody) | –
Ab7.23 (antibody, human IgG1, kappa, V domains shown, human IgG1/kappa; also called Ab7-VL4 humanized variant) VH: EVQLVESGGGLVQPGGSLRLSCAASGFTFTSYSMSWVRQAPGKGLEWVSYISYDGGSAYYPDTVKGRFTISRDNSKNTLYLQMNSLRAEDTAVYYCARHGDYDDDDAMDYWGQGTLVTVSS VL: DIQMTQSPSSLSASVGDRVTITCRASENIYSYLNWYQQKPGKAPKLLVYNAETLTEGVPSRFSGSGSGTDFTLTISSLQPEDFATYYCQHHYGTPLTFGQGTKLEIKR | – | – | – | no binding (tested: 3.3 nM to 30 nM of antibody) | –
Ab7.7 (antibody, human IgG1, kappa, V domains shown, human IgG1/kappa; also called Ab7-VL4 humanized variant) VH: EVKLVESGGGLVQPGGSLRLSCAASGFTFTSYSMSWVRQAPGKGLEWVAYISYDGGSAYYPDTVKGRFTISRDNSKKTLYLQMSSLKSEDTAMYYCARHGDYDDDDAMDYWGQGTSVTVSS VL: DIQMTQSPSSLSASVGDRVTITCRASENIYSYLNWYQQKPGKAPKLLVYNAETLTEGVPSRFSGSGSGTDFTLTISSLQPEDFATYYCQHHYGTPLTFGQGTKLEIKR | – | – | – | no binding (tested: 3.3 nM to 30 nM of antibody) | –
Ab7.15 (antibody, human IgG1, kappa, V domains shown, human IgG1/kappa; also called Ab7-VL4 humanized variant) VH: EVKLVESGGGLVQPGGSLRLSCAASGFTFTSYSMSWVRQAPGKGLEWVAYISYDGGSAYYPDTVKGRFTISRDNSKKTLYLQMNSLRAEDTAVYYCARHGDYDDDDAMDYWGQGTLVTVSS VL: DIQMTQSPSSLSASVGDRVTITCRASENIYSYLNWYQQKPGKAPKLLVYNAETLTEGVPSRFSGSGSGTDFTLTISSLQPEDFATYYCQHHYGTPLTFGQGTKLEIKR | – | – | – | no binding (tested: 3.3 nM to 30 nM of antibody) | –

Further lines, with some results ahead:

Kd (recombinant mouse IL-27) [nM] | Kd (recombinant human IL-27 [1]) [nM] | Kd (recombinant human IL-27 [2]) [nM] | Binder | binding result (recombinant human IL-27 [5]) | other results
182 | ≤ 15 | 8.93 | SRF538 (antibody, V domains shown, also called SRF538-A; SRF538-B) VH: QVQLVESGGGVVQPGRSLRLSCAASGFTFSSYGMHWVRQAPGKGLEWVAVIWYDGSNKYYADSVKGRFTISRDNSKNTLYLQMNSLRAEDTAVYYCARGAPEYVDVWGQGTMVTVSS VL: not shown | – | –
0.405 | ≤ 15 | 0.0024 | SRF384 (antibody, V domains shown, also called SRF384-A; SRF384-B) VH: EVQLVESGGGLVKPGGSLRLSCAASGFTFSRYGMNWVRQAPGKGLEWVSSISSSSAYILYADSVKGRFTISRDNAKNSLYLQMNSLRAEDTAVYYCARDGGRTSYTATAHNWFDPWGQGTLVTVSS VL: not shown | – | –
2.5 | ≤ 15 | 0.0075 | SRF382 (antibody, V domains shown, also called SRF382-A; SRF382-B) VH: EVQLVESGGGLVKPGGSLRLSCAASGFTFSRTGMNWVRQAPGKGLEWVSSISSSSSYIYYADSVKGRFTISRDNAKNSLYLQMNSLRAEDTAVYYCARDGGRTSYTATAHNWFDPWGQGTLVTVSS VL: not shown | – | –
62.1 | – | 0.026 | SRF543 (antibody, V domains shown, also called SRF543-A; SRF543-B) VH: QVQLQQWGAGLLKPSETLSLTCAVYGGSFSDYEWSWIRQPPGKGLEWIGEIDWSGITNYNPSLKSRVTISVDTSKNQFSLKLSSVTAADTAVYYCARLPMYYYDSSVSTGSVDVWGQGTMVTVSS VL: not shown | – | –
